This is an account of results in paper PMC7613211 (Nature chemical biology, 2022).

Data set [1] deals with BT3796^4S-Gal/GalNAc (Bacteroides thetaiotaomicron) (UniProt Q8A171). Put plainly: SEC-MALS. (In general: In gel filtration, larger molecules generally elute earlier.)
In data set [2] the target is BT1918^3S,6S-GlcNAc (Bacteroides thetaiotaomicron) (UniProt Q8A6G6). Put plainly: SEC-MALS.
Data set [3] has as its target T1, BT4631^6S-Gal/GalNAc (Bacteroides thetaiotaomicron, UniProt Q89YV0).
T1 sequence (Q89YV0 26-520): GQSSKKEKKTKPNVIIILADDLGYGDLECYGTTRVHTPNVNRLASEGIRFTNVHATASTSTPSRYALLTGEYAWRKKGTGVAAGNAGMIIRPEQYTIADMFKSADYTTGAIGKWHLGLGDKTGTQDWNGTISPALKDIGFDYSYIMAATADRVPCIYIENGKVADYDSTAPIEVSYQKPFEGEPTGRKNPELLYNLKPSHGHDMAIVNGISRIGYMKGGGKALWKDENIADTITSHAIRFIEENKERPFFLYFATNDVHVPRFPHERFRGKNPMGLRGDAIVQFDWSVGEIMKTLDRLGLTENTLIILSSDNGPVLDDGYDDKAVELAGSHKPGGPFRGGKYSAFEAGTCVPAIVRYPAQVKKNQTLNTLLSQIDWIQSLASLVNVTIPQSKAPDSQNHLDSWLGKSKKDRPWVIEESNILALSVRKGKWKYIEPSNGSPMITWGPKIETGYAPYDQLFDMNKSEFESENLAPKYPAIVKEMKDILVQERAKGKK
Put plainly: desulfation assay. In kind it is biochemical.

Data set [4] deals with the molecule itself. Put plainly: SEC-MALS.

“BT3796^4S-Gal/GalNAc (from UniProt Q8A171 1-518) (enzyme)” displayed a stoichiometry N in data set [1] of 2. On to “BT1918^3S,6S-GlcNAc (from UniProt Q8A6G6 1-500) (enzyme)”, for which the stoichiometry N in data set [2] came to 2. With `O=S(=O)(O)OC[C@H]1OC(O)[C@H](O)[C@@H](O)[C@H]1O` (stereo partly drawn) [6S-Gal], the “desulfation assay (kcat/KM only, supplement)” value in data set [3] was “BT4631^6S-Gal/GalNAc cleave both 6S-GalNAc and 6S-Gal equally well”. For the molecule `CC(=O)N[C@H]1C(O)O[C@H](COS(=O)(=O)O)[C@H](O)[C@@H]1O` (stereo partly drawn) [6S-GalNAc], the “desulfation assay (kcat/KM only, supplement)” value in data set [3] is “BT4631^6S-Gal/GalNAc cleave both 6S-GalNAc and 6S-Gal equally well”.

B1: BT3057^4S-Gal/GalNAc (enzyme, Bacteroides thetaiotaomicron, UniProt Q8A397 1-508, looked up)
chain: QERPNIIVFLVDDMGLMDTSVPFIADESGQPVRHPLNDWYHTPNMERLAKQGICFSTFYAQSVSSPSRASIMTGQNATRHGVTNWINAESNNRNPFGPPQWNWKGLRKDMPTMPRVLQQAGYKTIHVGKAHFGCMGSEGENPLNIGFDVNIAGSGIGHPGSYYGEWGYGHIKGQKIRAVPDLEKYHGTDTFLSEALTIEANREITKAVEEKRPFYLNMAHYAVHSPFQADKRFLSRYTDPDKNEQARAFATLIEGMDKSLGDIMDQLEKLGIAENTLILFLGDNGGDAPLGDERGYGSSAPLRGKKGTEFEGGMRVPFIAAWAKPEKKSKVQKNLPIEVGSMQTQLGTIMDIYPTVLSVAGCEVPQNYVIDGFDLKKQLSGKVDKKRPESFLMHFPHAHRGSYFTTYRMGDWKLIYYYLPETPKQPKALLYNLKDDPEERNELSAAHPDQCREMIREMSARLEKEGALYPVDKQGNELKPFVYF
B1: in data set [4], the “stoichiometry N” value was found to be 2.

As a reminder, the stoichiometry N is a count of units in the complex or per binding partner.
